The values that follow come from US8188039 (ARK THERAPEUTICS GROUP, dated 2012).

The series concerns the molecule itself. The series can be described thus: homodimer formation, SDS-PAGE on non-reducing conditions. The method, then: Purified proteins were analyzed by SDS-PAGE in both denaturing and non-denaturing conditions, staining the gels with Silver Snap Stain KitII (Pierce) or Page Blue Protein Staining Solution (Fermentas). Alternatively, proteins were transferred to nitrocellulose membrane and detected using a VEGF-D monoclonal antibody (MAB286, R&D Systems).
Covalent dimer formation: The ability of VEGF-$D^{\Delta N \Delta C}$, VEGF-$D^{\Delta N \Delta C}$25A and VEGF-$D^{\Delta N \Delta C}$53A to form covalent dimers was evaluated by SDS-PAGE on non-reducing conditions. […] As expected, covalent dimer formation of VEGF-$D^{\Delta N \Delta C}$53A was hindered.

B1: VEGF-D^ΔNΔC (ligand, not shown: small tags and cut ends)
chain: FYDIETLKVIDEEWQRTQCSPRETCVEVASELGKSTNTFFKPPCVNVFRCGGCCNEESLICMNTSTSYISKQLFEISVPLTSVPELVPVKVANHTGCKCLPTAPRHPYSHHHHHH
notes: Amino acids 93-201 of wild-type VEGF-D with N-terminal Flag-tag and C-terminal 6xHis; found partially as a covalent dimer, otherwise non-covalent dimer or monomer; also called mature form of VEGF-D; native VEGF-D^ΔNΔC
With B1, the binding result is given as “binds”.

B2: VEGF-D^ΔNΔC25A (ligand, not shown: small tags and cut ends)
chain: FYDIETLKVIDEEWQRTQCSPRETAVEVASELGKSTNTFFKPPCVNVFRCGGCCNEESLICMNTSTSYISKQLFEISVPLTSVPELVPVKVANHTGCKCLPTAPRHPYSHHHHHH
notes: Formed more covalent dimer than the native form; also called Cys25 to Ala mutant of VEGF-D^ΔNΔC
On to B2, for which the binding result is listed as “binds”.
